Reference: publication PMC9060481 (2022)
“And” between values parts separate entries of the source, which are not always exact repeats. Identical values can stand only once.

Columns and labels:
[1] = biological target: T1, calmodulin 2 (CaM2), purified recombinant protein (M. truncatula); experiment: ITC; 5 mM CaCl2
[2] = biological target: T1, calmodulin 2 (CaM2), purified …; experiment: BLI; 20 mM CaCl2
[3] = biological target: T1, calmodulin 2 (CaM2), purified …; experiment: BLI; 20 mM CaCl2; remark: listed apart in the source

| Kd [1] | koff [2] | Kd [3] | Binder |
| --- | --- | --- | --- |
| 0.644 µM and 0.64 µM |  |  | AACFIQAAWRRHKKRKEA [CNGC15c-IQ peptide] |
|  | 0.43 s⁻¹ | 59 µM | His6-MBP:CtermCNGC15b (domain or fragment) GNMQTYLQSTTVRLEEWRVKRTDTEQWMHHRQLPQELRQSVRKYDQYKWIATRGVDEESLLRGLPLDLRRDIKRHLCLELVRRVPLFDAMDERMLDAICERLKPALCTENTYLVREGDPVNEMLFIIRGNLDSYTTDGGRTGFFNSCRIGPGDFCGEELLTWALDPRPTMVIPSSTRTVKAISEVEAFALIAEDLKFVASQFRRLHSKQLRNKLRFHSHQWRTWAACFIQVAWRRTIQEKKGSC |
|  | 0.77 s⁻¹ | 526 µM | His6-MBP:CtermCNGC15a (domain or fragment) GNMQTYLQSTTIRLEEWRIRRTDTERWMHHRQLPHYLKENVRRHDQFRWVATRGVDEEAILRDLPVDLRRDIKRHLCLNLVRQVPLFDQMDDRMLDAICERLKPTLCTPGTCIVREGDPVDEMLFIVRGRLDSCTTNGGRTGFFNTCRIGSGDFCGEELLPWALDPRPTAVLPSSTRTVRAITEVEAFALIAEDLKFVAAQFRRLHSKQLRQTFRFYSHQWRTWAACFIQAAWFRYKRMKETNEVKEKENLMMMSNVKYYGNDDSQYFSAPLQVPKGSSYSMYSGKLVGSLRRGRSMRYGSELDMLGTLRKPIEPDFNDDGD |
|  | 0.077 s⁻¹ | 14.6 µM | His6-MBP:CtermCNGC15c (domain or fragment) LIGNMQTYLQSITVRLEEWRVKRTDTEQWMHHRQLPPELRESIRKYNQYKWVATRGVEEEDLLKGLPLDLRREIKRHLCLELVRGVPLFDQMDERMLDAICERLKPALCTEGTYLVREGDPVNEMLFIIRGHLDSYTTNGGRDGFFNSCRIGPGDFCGEELLTWALDPRPSVILPSSTRTVKAFSEVEAFALIAEDLKFVASQFRRLHSKQLRHKFRFYSHQWRTWAACFIQAAWRRHKKRKEAAELRAKENLVAASEAENEIAKKYGKGFVVYGTRVARSTRKGVNMHSGTNSGVVSSLQKPTEPDFSDE |
| 1.39 µM |  |  | AACFIQVAWRRTIQEKKG [CNGC15b-IQ peptide] |
